Experiment: soluble on expression in E. coli; label from the status in PepcDB or PDB records

Row | Sequence | soluble on expression in E. coli
1 | MGSDKIHHHHHHMTHQANDAVAPASGMIELSHSFDANRFLAAVDRDERATLIANLQLVHLKSGQVLCEPGEMLTAVYLPVTTAISLQYVSTGGMTLEVAQIGSESVVCDDVIGGSGRMPCRAVACRDGFVYRLDRRIFAAAFDASPVIRHLVFVCVRLLMAQVAQITFCSRHHVLKHQLCRWFLLAYDRSRSIEIQVTHSMLAQMLGVRRETVTDAAGEIQRLGLIRQYRSSIVLADLAGLEKLSCGCRAIVRDEMKRILSADSGVSAAARA | not soluble
2 | MSLEKSSRINGGKMNREEVKDSVLLGDSLEIMRRIDDCIYDLIFLDPPYYLQMTPKRLKRWNNRSVPQTVREYWDAFPSFEAYDSFISSVLKEAKRLMSDTSTIWAIGTYHNIFRIGKIMQDMGFWILNDVVWIKTNPMPNWLGVRFTNSTETLIWATKGKEQKNYTYNRNLAKEFGLGKTANNVWVMKTSRGNERVRDENRKSVHPAQKPLELMKRIILSSTKEGDLILDPFAGVGTTGVAASMLGRNFTLIEKDPVYYRAMLSRFSRFGIRYTEKIEGHHHHHH | not soluble
3 | EDDEDYGDLGGCPFLVAENKTGYPTIVACKQDCNGTTETAPNGTRCFSIGDEGLRRMTANLPYDCPLGQCSNGDCIPKETYEVCYRRNWRDKKNHHHHHH | soluble
4 | MASISSLGVGSGLDLSSILDSLTAAQKATLTPISNQQSSFTAKLSAYGTLKSALTTFQTANTALSKADLFSATSTTSSTTAFSATTAGNAIAGKYTISVTHLAQAQTLTTRTTRDDTKTAIATSDSKLTIQQGGDKDPISIDISAANSSLSGIRDAINNAKAGVSASIINVGNGEYRLSVTSNDTGLDNAMTLSVSGDDALQSFMGYDASASSNGMEVSVAAQNAQLTVNNVAIENSSNTISDALENITLNLNDVTTGNQTLTITQDTSKAQTAIKDWVNAYNSLIDTFSSLTKYTAVDAGADSQNSSNGALLGDSTLRTIQTQLKSMLSNTVSSSNYKTLAQIGITTDPSDGKLELDADKLTAALKKDASGVGALIVGDGKKTGITTTIGSNLTSWLSTTGIIKAATDGVSKTLNKLTKDYNAASDRIDAQVARYKEQFTQLDVLMTSLNSTSSYLTQQFENNSNSK | not soluble
5 | MKISLVTVTFNSAKTLCDTIHSVLSQSYTNIEYIIVDGLSNDETVTLIKEYEPLFQGRLKWISEKDKGLYDAMNKGIRMSTGDIVGIINSDDFYHRGDVLEKVAESFEAGETEAIYGDVRFVNPDNLDRTVRYYSSKRFVPSLFRFGFMPAHPTFFTYRKYFDQFGYYKTNYKIAADYELLVRFLYVHRLKSKYLPLDFMKMRTGGASTASIKSNILLNKEIVRACKENGIWTCYPLLLLKYLVKVFELIFIKKLEHHHHHH | soluble
6 | MGSDKIHHHHHHMHFVMIFLDGFGLGGDRDNPIMAAHTPYIDELLGGHYLWGQERRIESEQLILIPLDASLDVTGIPQSATGQTTLWTGVNGAKALGFHLNAYPNEKLAEIIKEKSIFKQLADQGKKVTFANTFTSHYDEMIASGKRRHTASTLSALAGGVPLRRIEDLLQGKGVYQDMTNEILRELEQEADIPLITSYEAGKNLGRLALDYDFTLYEFFQTDVRGHKQDWEKAVALIEQIDGFIGGFMSVVRHEDVTWLLTSDHGNIEDFRVKGHTQNPVPALGWSSKPLEWPQWERLEDVTPGIVRMILGTREL | not soluble
7 | MAHHHHHHMSFKEMRLAFEGSKNIYESSLLTFKGVDGYDVYNCSLLFQYKGKHHLFGRFERREKSSDSRVRLFVETGKDEYTVVPDQLTYQLEDPFVSKVQGSLFFGGTQVIKSGGNVTGYFCDFYHGMPQLLTYYTTGPDLMRSIRIVQLADGTIGIFSCHKTEGSCLIGFTTVNSLNEVTREVIAEAKPINNAPFLGAWGGVNQAYLLSSGNIGCICHHGYLDKDANGEQRNVCCITSFVYDPKRNNTHTFQLIGTRGCFPDCPSKSPSVADCAFASGIVMREDGKCDLYSGLGDTHEGRITIDYPFKGYGTVVNDLVF | soluble
8 | MGSDKIHHHHHHMSYRYNSVVDLIHKQISAGTLKVGDRLPSIRQLSLLTGFSTVTIHHAYELLESHGYCSARPRSGFYLVRTPLQQMGDFPHDGENSIEPISIVDFPHALLLSWQKRTLDAFGAPHPSADLFDCADVDRVMCRLLRRRKAIAANSVGGDPELRLQIAKRAAQRGVVTRPQDIVITGSAIQAFNLCLDALTDPGDVVLVESPSYFPALSSIKRRNLRVIEIYSHPVNGIDPDQLEHLVRNNEIRVAVLMASNHFPTGITYSEDRMKRIVSVAKKNDVTIIANSMLDDITYDSVTDNSLRKFDSGETVLQFSSFECGLSPQYGLGWIVAGKHSQKILAASYLGDYAPNDQRIQQAVAEYLSSRSHDRQLRRIRETLASRMERGLQLLADSLPTGCSVSRPTGGYMCWVRGPQKFTSMTAVLQLHKQNVSILPGSVFSAAARSFENFFALNLSFPWSAENEAKIGSIGDLIAQIVGR | not soluble
9 | MSLKNNRHFLKFYCIRDLSWLSSVRASFIYSSFESIASSPFSSYIELRKKPVKFLLILFIALTLCDCGRSKETQFYLLTPISPQKNSRNSYNHLQIGVDEVSIPDYMKKPQLMIHQTPHHLTLEEFNQWAGALDKNITLVLTTNLSTLMPGVVVQTSPWNNKFHPDYHLQVMISQFEIDIHGNSTLRAEYFIYRKEELIYKGNAYYHIKVPLISIETLVQSMNTNLTHLTEEIARFFIKNTTKEGHHHHHH | not soluble
10 | MRVLALSAVFLVASIIGMPAVAKEWQENKSWNAHFTEHKSQGVVVLWNENKQQGFTNNLKRANQAFLPASTFKIPNSLIALDLGVVKDEHQVFKWDGQTRDIATWNRDHNLITAMKYSVVPVYQEFARQIGEARMSKMLHAFDYGNEDISGNVDSFWLDGGIRISATEQISFLRKLYHNKLHVSERSQRIVKQAMLTEANGDYIIRAKTGYSTRIEPKIGWWVGWVELDDNVWFFAMNMDMPTSDGLGLRQAITKEVLKQEKIIP | soluble
11 | MGDITNEMIWQAIKELAEQLQQTNGQVQQLSQQVQQTNEQVQQLGQQIQHLNSQVQQLNHQVQQTHEQVGQLAKQVQQTNEQLNQLSQQVADMDKRLTDVANGQNILVEELFENKKEIKRVKTALNMY | not soluble
12 | MGSDKIHHHHHHMLVQGFEEDLAFLGWIALTLGSNPLVPYVPTRPELIPKILELLDLKEDDVFYDLGCGDGRVVIEAVKKTRVKKAVCVETRDDLVKEARKKAEEEGVSDRIEFINNDFFKTPLKDATAVYMYLLTSVNESLKPKLARELRDGTRIVTLDFPIPGWKPVKVETATTGWQRSLYLYVKGVSDRA | not soluble
13 | MSLVQSINTKVDLTIDATAYTGLTDYGKIMIGDKGFEFFNSRDVRKFVQIPWEEVDQVIVSVMLKGKWIPRYAIKTKRNGTYTFASKRPKEVLRKIRVYVDPANMVSSLSFFDVMKRSFRSIFSKKKNKNKEGHHHHHH | not soluble
14 | MNSVGEACTDMKREYDQCFNRWFAEKFLKGDSSGDPCTDLFKRYQQCVQKAIKEKEIPIEGLEFMGHGKEKPENSSLEHHHHHH | not soluble
15 | MLSYRHAFHAGNHADMLKHFTLFLVLQYFNRKDKPYWYIDTHGGAGVYNLEGSEAQKVGEYRQGIALLRQAQNLPAELSDFAAHIQKILPSPKLYCGSPWLAQSLTRVGDKLRLFELHPTDFVHLQNNMGEAGLGKRGQVLREDGYKGLISLLPPPPRRATVLIDPPYEEKQDYRRVTETLKAALKRFESGCYLIWYPCLSREESRKLPEELKKLLPDNYLHAELHVHAPKADGFGMHGSGMFVINPPYLLAEQLAANLPALTRLLAQDEGSRYLLDSKIR | not soluble
16 | MDNRIPSALTTSVKSPKTPSGIPFLIRERDVIKAILEFLEIRGLHITQLSLEREAGVINGAFSDDLLFLRQLILDGQWDNALDFVEPLKPVNEFDFGAFRYNITKYKFFELLCVKLEPGPLHDNDFAVEELVECLKDLEHICPTPEDYRHLCALLTLPKLSDHEDFKNWNPSSARVECFNKVNQLCGHLLPPTGKEKDRGDDANSSNDRLTGLITKGRFYEGCVDYCQAQAIGDKRGIDAGPMPSEMLTFRPKLGSADLSLVCWLEMVGKEQFSMPFKQKQLELKVDHIRKPKLEAPWTETIMATPIKPGGQFPHNLVPSSKLKFAEKMSQSMTMSMLPPADLTTSMFPSVPRGHPMSQSTAAGFCLGTAITEADAMAQSLLIDEMMESSQLARTSRPDTLRGVGMMMTGDTIVPVQPAQVMINAPSQLSSQMMSMSMAPQVMAPIAPMAQNMINYDFAPVRRQLDEMARRSLPPSRLPTVPELGSPAVNSHHEENLMTQSRLFQQFSAAKQINEMVLPRGVGGVVGAAGAVGGAHVLPLQSQERLFQQRVAAAPGFQNGAQIPNQSMVPQGVPMSHQIRPQSIAGLPQAQPQVPQQLQRPVSAPTGMGVQFVPVCRYEDSQAIRATGFHPSGRYFALGTNSKQLHICLYPDTKRTQSRPMAYEQTKNAEIAVTRPKQHRGSVYCLSFNPNGDLLATGSNDKTIRLMAFNEDSCRIGAEMELTCHDGTVRDLIFIESSINRSTILVSGGAGNCHLNVTDCNTGQLIQSMKGHTAPILGLYTWSQAGNQFVSCSQDKTIRFWDLRQQTAVNVISPGSNKSHNASPVTSVCVDPNGKLLVSGHEDASVALFDIGGNRILQTFRPHGDEVRTVRFSNAAYYLLTASYDKRVVISDMRGDLMAPLMYLPVAEHSDKVVQCRWHPHDFSFLSTSADRSAVLWSLPNR | not soluble
17 | SSSESEKDKERLIQAAKMFFFHVQDLASVINTLTELFSRSMNTQILLMAVRNNSYIKDFFEQMLKIFKEMQSVVDARHDKIQKESLCSKVAMAMCSVVQKSTNVEELHQSAKEVFKSAHTPVIISVLNSSNILGSLESSLSHLMKFPIMNLQLSDFYTEDTKEQSDVTTSERTRSPPGSSKTTMIDTLKKLQDVLKTEDSKNPTKSAADLLEQIVKAMGPILEILQKAIKTMEMNISVFKKASDK | soluble
18 | MAHHHHHHMATNPDIETDIPRDVYQFFRGLNRAVERRDAAAMHDLYESQFDALTKNYYMAGHGQFRSWPALRLEQVSSCFRGNHMAELVYSFLFYKHLFMDNRSVRAPDAEGAWKTYSELLPMLKSYELPNWMLWDIFDEFLYQMTVVYQKVFVTEGIWAVPEVSRLLNEVIDNSRLLELVKQPDFLEDIHRGPNTGALSGFYAIVTKSKLNVLLGDYYSALTDLEPLDVYNKGRAVLTRVSPCAVSVFYHIGFSYLMIHRFEDASNAFRRCVTVKLNGRRFSERVQQDAAYMYVCARVLGGMPINNLTSYLDSRKVAAFEDDRESLRTGDEERFRDVFDRCSPKFLTVPPSDGSPVKGSEGRELQARMFRRAVQQQQDIIKLRGYFKVYQNTKMNLLETLLEVDDGYAPLFALKMRSRQLVHDGVTADLLQGVFTSSSEFDCIVQDDNVEVVPSMTFGGIEQKLLNKIKNTQRDIEVAKRKFNQTRNRDEGGNKRKDQRDQKRRPNQQQLHGGVGNNAGSANRSSNNVNRHPRQKMAAQPMTSNLFNRNDN | soluble
19 | MGKPTGFLEYTREIPQELSPGDRLRNWDEFHVTMPDKQVETQGARCMDCGTPFCHTGSLISGMASGCPINNLIPEFNDLVYRGLWREALDRLHKTNNFPEFTGRVCPAPCEGSCVLGINNPPVTIKNIEYSIIEKGWQEGWVTPEPPAKRTGKKVAVVGSGPAGLAAAAQLNKAGHWVTVYEREDRPGGLLMYGIPNMKLDKEEVVLRRLNVLEAEGVTFVCNTEIGKDLPPETLLKDYDAVVLCTGATKPRDLAIAGRELEGIHFAMEFLTANTKAILDKTPGPNFISAKDKDVVIIGGGDTGTDCVGTSLRHGCRSLVQLEIMPKPPEERAANNPWPEWPKVYKMDYGQEEAAAVYGHDPRSYLTTATKIEGDDQGRVKAVHTVDVRWEKDGQGRFIPQQVAGTEQVRPAQLVLLAMGFVGPESQLLDAMKLDKDARGNIKAEYGQYETSIPGVFAAGDCRRGQSLVVWAFNEGRGAAKACDLYLMGETDLPLEHHHHHH | not soluble
20 | MPPKQQLSKAAKAAAALAGGKKSKKKWSKKSMKDRAQHAVILDQEKYDRILKEVPTYRYVSVSVLVDRLKIGGSLARIALRHLEKEGIIKPISKHSKQAIYTRATASE | soluble
